Source: US20250297032A1 (CONCEPT TO MEDICINE BIOTECH, published 2025)

T1: human FAPα on CHO-K1-hFAPα cells (human, UniProt Q12884 1-760)
T1 construct: whole, on cells; also called cell-surface FAPα
T1 sequence (looked up): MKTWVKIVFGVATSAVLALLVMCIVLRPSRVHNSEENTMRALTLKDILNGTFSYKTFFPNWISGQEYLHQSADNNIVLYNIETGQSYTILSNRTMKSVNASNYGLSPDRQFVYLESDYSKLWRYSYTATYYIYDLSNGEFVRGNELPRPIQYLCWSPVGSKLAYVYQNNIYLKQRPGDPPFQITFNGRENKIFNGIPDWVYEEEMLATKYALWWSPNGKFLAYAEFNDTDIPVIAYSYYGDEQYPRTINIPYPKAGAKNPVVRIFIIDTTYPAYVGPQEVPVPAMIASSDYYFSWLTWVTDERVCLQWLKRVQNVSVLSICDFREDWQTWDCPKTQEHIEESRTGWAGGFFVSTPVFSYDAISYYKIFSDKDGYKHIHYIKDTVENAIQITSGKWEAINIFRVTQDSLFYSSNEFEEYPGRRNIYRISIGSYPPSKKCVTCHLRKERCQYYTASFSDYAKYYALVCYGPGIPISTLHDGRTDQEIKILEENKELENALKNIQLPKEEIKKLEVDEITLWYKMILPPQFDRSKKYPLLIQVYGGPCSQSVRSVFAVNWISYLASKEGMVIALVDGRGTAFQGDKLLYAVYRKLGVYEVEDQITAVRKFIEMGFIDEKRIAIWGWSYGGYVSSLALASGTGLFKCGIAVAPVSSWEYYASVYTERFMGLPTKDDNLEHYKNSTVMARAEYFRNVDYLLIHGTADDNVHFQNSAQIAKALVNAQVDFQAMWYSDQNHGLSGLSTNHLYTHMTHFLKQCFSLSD

T2: human FAPα-His tag (Sino biological) (human, UniProt Q12884 26-760)
T2 construct: Bought protein; also called human FAPα-His protein; not shown: His tag
T2 sequence (looked up): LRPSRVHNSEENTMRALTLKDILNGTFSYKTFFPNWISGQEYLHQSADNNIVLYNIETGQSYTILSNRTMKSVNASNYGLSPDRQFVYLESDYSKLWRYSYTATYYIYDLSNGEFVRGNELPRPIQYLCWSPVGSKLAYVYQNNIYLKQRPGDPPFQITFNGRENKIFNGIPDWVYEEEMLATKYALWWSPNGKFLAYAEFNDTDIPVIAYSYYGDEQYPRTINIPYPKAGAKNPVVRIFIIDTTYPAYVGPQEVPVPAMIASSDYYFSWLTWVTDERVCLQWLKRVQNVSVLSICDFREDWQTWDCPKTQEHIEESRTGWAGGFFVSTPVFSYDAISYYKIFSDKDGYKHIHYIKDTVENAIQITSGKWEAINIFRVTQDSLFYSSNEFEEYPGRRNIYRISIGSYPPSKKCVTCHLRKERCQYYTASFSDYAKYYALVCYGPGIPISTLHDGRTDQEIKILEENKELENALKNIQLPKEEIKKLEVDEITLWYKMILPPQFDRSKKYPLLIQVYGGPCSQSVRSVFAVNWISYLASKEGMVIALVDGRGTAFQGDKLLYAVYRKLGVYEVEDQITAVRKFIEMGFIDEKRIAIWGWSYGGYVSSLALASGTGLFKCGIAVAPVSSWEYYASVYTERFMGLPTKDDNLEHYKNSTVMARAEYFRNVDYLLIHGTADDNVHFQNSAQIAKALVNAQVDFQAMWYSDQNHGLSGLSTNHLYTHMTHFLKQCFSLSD


Experiments:
[1] = target: T1, human FAPα on CHO-K1-hFAPα cells; test: flow cytometry on CHO-K1-hFAPα cells
Experimental: (§1) To evaluate the cell-based binding property to human FAPα, the tested antibodies were analyzed for their binding to CHO-K1-hFAPα by FACS. A total number of 1×10⁵ CHO-K1-hFAPα cells in each well were incubated with 4-fold serial diluted antibodies starting from 3 μg/ml for 30 minutes at 4° C. in FACS buffer. After wash by FACS buffer, PE conjugated-anti-human IgG antibody was added to each well and incubated at 4° C. for 30 minutes. After wash, MFI of PE was evaluated by MACSQuant Analyzer 16.

[2] = target: T1, human FAPα on CHO-K1-hFAPα cells; test: flow cytometry on CHO-K1-hFAPα cells (MFI of PE); parameters: unit not given beside the values
Experimental: as §1

[3] = target: T2, human FAPα-His tag (Sino biological); test: competitive ELISA on coated human FAPα; competitor (detected): FAP-G52-Bio
Experimental: (§2) Briefly, microtiter plates were coated with human FAPα proteins at 0.5 μg/ml in PBS, 100 μl/well at 4° C. overnight, then blocked with 150 μl/well of 1% BSA. Serial dilutions of chimeric antibodies as well as biotin-conjugated reference mAb were added to each well and incubated for 1 hour at RT. The plates were washed with PBS/Tween and then incubate with streptavidin-HRP for 15 mins at RT. After washing, the plates were developed with TMB substrate and analyzed by spectrophotometer at OD 450 nm. According to the competition ability to reference mAbs (Benchmark, or “BMK”), all tested FAPα mAbs binds to the similar epitope as shown in Table 5.

[4] = target: T2, human FAPα-His tag (Sino biological); test: competitive ELISA on coated human FAPα; competitor (detected): FAP-I30-Bio
Experimental: as §2

[5] = target: T2, human FAPα-His tag (Sino biological); test: competitive ELISA on coated human FAPα; competitor (detected): FAP-J40-Bio
Experimental: as §2

[6] = target: T2, human FAPα-His tag (Sino biological); test: SPR (Biacore T200), mAb captured on Protein A chip, human FAPα-His as analyte
Experimental: The binding of the tested antibodies to recombinant FAPα protein (human FAPα-his tag) was tested with Biacore using a capture method. The mAbs were captured using Protein A chip. A serial dilution of human FAPα-his tag protein was injected over captured antibody for 3 mins at a flow rate of 30 μl/min. The antigen was allowed to dissociate for 800s. All the experiments were carried out on a Biacore T200. Data analysis was carried out using the Biacore T200 evaluation software.

[7] = target: T2, human FAPα-His tag (Sino biological); test: competitive ELISA on coated human FAPα; competitor (detected): FAPα (BMK)-Bio
Experimental: as §2

[8] = target: T2, human FAPα-His tag (Sino biological); test: competitive ELISA on coated human FAPα; biotinylated mAb alone, no competing Ab (row '0')
Experimental: as §2

Binder	EC50 [1] [ng/mL]	Cmax [2]	OD 450 nm [3] [OD 450 nm]	OD 450 nm [4] [OD 450 nm]	OD 450 nm [5] [OD 450 nm]	Kd [6] [nM]	koff [6] [s⁻¹]	kon [6] [M⁻¹ s⁻¹]	OD 450 nm [7] [OD 450 nm]	OD 450 nm [8] [OD 450 nm]
G14 (antibody, V domains shown, Full human antibody from a Fab phage library; Tested as a mAb (detected with anti-human IgG, captured on Protein A); also called FAP-G14; FAP-G14-Bio (biotin-conjugated form)) VH: QVQLLESGGGVVQPGRSLRLSCAASGFTFSSYAMHWVRQAPGKGLEWVAFISHDGNRNSYADSVRGRFTISRDNSKNTLYLQMNSLRAEDTAVYYCARDLGYYNGFSYWGQGTLVTVSA VL: DIVMTQSPSSVSASVGDRVTITCRASQGISSWLAWYQQKPGKAPKLLIYAASSLQSGVPSRFSGSGSGTDFTLTISSLQPEDFATYYCQQANSFPPTFGPGTKVDIK	0.073	515	0.195	0.241	0.293	0.522	6.24e-05	120000	0.399	2.15
I37 (antibody, V domains shown, Tested as a mAb; also called FAP-I37) VH: QLQLVESGGGLVQPGGSLRLSCAASGFTFSSYAMSWVRQAPGKGLEWVSAISGSGGSTYYADSVKGRFTISRDNSKNTLYLQMNSLRAEDTAVYYCARDKPWGGSFDYWGQGTLVTVSA VL: DIQLTQSPSSLSASVGDRVTITCRASQGISSWLAWYQQKPGKAPKLLIYAASSLQSGVPSRFSGSGSGTDFTLTISSLQPEDFATYYCQQANSFPVTFGPGTKVDIK	0.057	465	0.18	0.239	0.314	0.855	0.000154	180000	0.46	1.72
I30 (antibody, V domains shown, Tested as a mAb; also called 130; FAP-I30) VH: not shown VL: AIRLTQSPSSVSASVGDRVTITCRASQGISSWLAWYQQKPGKAPKLLIYAASSLQSGVPSRFSGSGSGTDFTLTISSLQPEDFATYYCQQANSFPPTFGGGTKVEIK	0.08	455	0.146	0.143	0.16	0.454	6.2e-05	137000	0.151	1.49
J40 (antibody, V domains shown, Tested as a mAb; also called FAP-J40; FAP-J40-Bio (biotin-conjugated form)) VH: EVQLLESGGGLVQPGGSLRLSCAASGFTFSSYAMSWVRQAPGKGLEWVSAISGSGGSTYYADSVKGRFTISRDNSKNTLYLQMNSLRTDDTAVYYCARDLTTSTGWESWGQGTLVTVSA VL: NIQMTQSPSSVSASVGDRVTITCRASQGISSWLAWYQQKPGKAPKLLIYAASSLQSGVPSRFSGSGSGTDFTLTISSLQPEDFATYYCQQANSFPPTFGQGTKLEIK	0.025	381	0.206	0.218	0.261	1.01	7.31e-05	72200	0.343	1.2
